From the supplement of paper PMC9112550, “Optimization of the antimicrobial peptide Bac7 by deep mutational scanning” (BMC Biology, 2022)

Test system: Escherichia coli TOP10
Experiment: shrunken log2 fold change of peptide-encoding DNA abundance (4.5 h post-induction vs induction); higher = less antimicrobial activity (less host growth inhibition)
Conditions: time post-induction: 4.5 h; library: site-saturation at positions 5, 18, 19, 20
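Further: peptides expressed intracellularly from a pBAD plasmid library in pooled LB shake-flask culture, induced with 0.3% L-arabinose, DNA abundance read by NGS, three biological replicates, DESeq2 with apeglm shrinkage.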

| Sequence | shrunken log2 fold change |
| --- | --- |
| RRIRTRPPRLPRPRPRPDFWPRP | 0.413 |
| RRIRWRPPRLPRPRPRPPQIPRP | 0.117 |
| RRIRERPPRLPRPRPRPNIHPRP | -0.637 |
| RRIRMRPPRLPRPRPRPMWCPRP | 0.283 |
| RRIRHRPPRLPRPRPRPRDHPRP | 0.175 |
| RRIRVRPPRLPRPRPRPQGVPRP | -0.275 |
| RRIRDRPPRLPRPRPRPWSVPRP | 0.0902 |
| RRIRDRPPRLPRPRPRPMECPRP | 0.0176 |
| RRIRSRPPRLPRPRPRPKNYPRP | -0.547 |
| RRIRCRPPRLPRPRPRPKDPPRP | 0.148 |
| RRIRDRPPRLPRPRPRPWACPRP | 0.0329 |
| RRIRFRPPRLPRPRPRPRSCPRP | 0.155 |
| RRIRCRPPRLPRPRPRPNCIPRP | -0.723 |
| RRIRFRPPRLPRPRPRPELCPRP | 0.193 |
| RRIRQRPPRLPRPRPRPAVCPRP | -0.197 |
| RRIRTRPPRLPRPRPRPQTCPRP | -0.176 |
| RRIRRRPPRLPRPRPRPMRPPRP | 0.66 |
| RRIRERPPRLPRPRPRPCYKPRP | -0.901 |
| RRIRNRPPRLPRPRPRPIFWPRP | -0.162 |
| RRIRSRPPRLPRPRPRPNFIPRP | -0.391 |
| RRIRKRPPRLPRPRPRPQYHPRP | -0.432 |
| RRIRMRPPRLPRPRPRPLCIPRP | 0.21 |
| RRIRHRPPRLPRPRPRPWWMPRP | 0.0619 |
| RRIRSRPPRLPRPRPRPKVYPRP | 0.226 |
| RRIRQRPPRLPRPRPRPGDGPRP | 0.415 |

| Sequence | shrunken log2 fold change |
| --- | --- |
| RRIRDRPPRLPRPRPRPKAFPRP | -0.00149 |
| RRIRLRPPRLPRPRPRPHFQPRP | -0.131 |
| RRIRYRPPRLPRPRPRPCCVPRP | -0.422 |
| RRIRDRPPRLPRPRPRPGRCPRP | 0.53 |
| RRIRFRPPRLPRPRPRPYYIPRP | -0.794 |
| RRIRVRPPRLPRPRPRPIPYPRP | -0.0701 |
| RRIRSRPPRLPRPRPRPNECPRP | -0.136 |
| RRIRMRPPRLPRPRPRPNPGPRP | 0.0378 |
| RRIRSRPPRLPRPRPRPKCKPRP | -0.0132 |
| RRIRGRPPRLPRPRPRPHRTPRP | 0.271 |
| RRIRIRPPRLPRPRPRPAIPPRP | -0.169 |
| RRIRKRPPRLPRPRPRPTENPRP | 0.143 |
| RRIRNRPPRLPRPRPRPNAPPRP | -0.194 |
| RRIRHRPPRLPRPRPRPGLVPRP | 0.0437 |
| RRIRWRPPRLPRPRPRPIIKPRP | -0.312 |
| RRIRWRPPRLPRPRPRPDTGPRP | -0.373 |
| RRIRMRPPRLPRPRPRPLWIPRP | -0.00647 |
| RRIRVRPPRLPRPRPRPCLTPRP | -0.0353 |
| RRIRQRPPRLPRPRPRPYYIPRP | -0.657 |
| RRIRGRPPRLPRPRPRPMVYPRP | 0.438 |
| RRIRPRPPRLPRPRPRPPTKPRP | 0.268 |
| RRIRMRPPRLPRPRPRPPYQPRP | 0.0406 |
| RRIRRRPPRLPRPRPRPHDMPRP | -0.103 |
| RRIRARPPRLPRPRPRPCYEPRP | -0.109 |
| RRIRIRPPRLPRPRPRPISWPRP | -0.392 |

| Sequence | shrunken log2 fold change |
| --- | --- |
| RRIRSRPPRLPRPRPRPATVPRP | -0.15 |
| RRIRMRPPRLPRPRPRPAGIPRP | -0.000742 |
| RRIRSRPPRLPRPRPRPWSFPRP | 0.0324 |
| RRIRTRPPRLPRPRPRPQVGPRP | -0.137 |
| RRIRWRPPRLPRPRPRPWCPPRP | 0.0505 |
| RRIRSRPPRLPRPRPRPTHIPRP | -0.165 |
| RRIRTRPPRLPRPRPRPIGEPRP | -0.195 |
| RRIRNRPPRLPRPRPRPSWQPRP | -0.0148 |
| RRIRQRPPRLPRPRPRPTKTPRP | 0.298 |
| RRIRDRPPRLPRPRPRPNTFPRP | -0.0294 |
| RRIRIRPPRLPRPRPRPLGRPRP | 0.39 |
| RRIRWRPPRLPRPRPRPVCTPRP | 0.26 |
| RRIRDRPPRLPRPRPRPKAWPRP | 0.107 |
| RRIRHRPPRLPRPRPRPFRSPRP | -0.000777 |
| RRIRQRPPRLPRPRPRPPISPRP | -0.187 |
| RRIRDRPPRLPRPRPRPCTMPRP | -0.0909 |
| RRIRLRPPRLPRPRPRPNVIPRP | -0.106 |
| RRIRNRPPRLPRPRPRPWCPPRP | -0.752 |
| RRIRARPPRLPRPRPRPTRGPRP | 0.301 |
| RRIRTRPPRLPRPRPRPEDPPRP | -0.00217 |
| RRIRNRPPRLPRPRPRPLCRPRP | -0.372 |
| RRIRCRPPRLPRPRPRPTVLPRP | -0.174 |
| RRIRDRPPRLPRPRPRPVKMPRP | -0.0606 |
| RRIRCRPPRLPRPRPRPHTYPRP | -0.578 |
| RRIRWRPPRLPRPRPRPSMIPRP | -0.12 |
